Measurements taken from US20220056092A1.
Values belong to the substance of their own block, whether it stands above or below them.

Molecular target: IL12 receptor on bystander (GFP+) T cells (human) (UniProt P42701)
Experiment: cell-based or functional assay

IL12 receptor on bystander (GFP+) T cells (human), sequence (Q99665 24-862, chain 2 of 2, other chains not shown): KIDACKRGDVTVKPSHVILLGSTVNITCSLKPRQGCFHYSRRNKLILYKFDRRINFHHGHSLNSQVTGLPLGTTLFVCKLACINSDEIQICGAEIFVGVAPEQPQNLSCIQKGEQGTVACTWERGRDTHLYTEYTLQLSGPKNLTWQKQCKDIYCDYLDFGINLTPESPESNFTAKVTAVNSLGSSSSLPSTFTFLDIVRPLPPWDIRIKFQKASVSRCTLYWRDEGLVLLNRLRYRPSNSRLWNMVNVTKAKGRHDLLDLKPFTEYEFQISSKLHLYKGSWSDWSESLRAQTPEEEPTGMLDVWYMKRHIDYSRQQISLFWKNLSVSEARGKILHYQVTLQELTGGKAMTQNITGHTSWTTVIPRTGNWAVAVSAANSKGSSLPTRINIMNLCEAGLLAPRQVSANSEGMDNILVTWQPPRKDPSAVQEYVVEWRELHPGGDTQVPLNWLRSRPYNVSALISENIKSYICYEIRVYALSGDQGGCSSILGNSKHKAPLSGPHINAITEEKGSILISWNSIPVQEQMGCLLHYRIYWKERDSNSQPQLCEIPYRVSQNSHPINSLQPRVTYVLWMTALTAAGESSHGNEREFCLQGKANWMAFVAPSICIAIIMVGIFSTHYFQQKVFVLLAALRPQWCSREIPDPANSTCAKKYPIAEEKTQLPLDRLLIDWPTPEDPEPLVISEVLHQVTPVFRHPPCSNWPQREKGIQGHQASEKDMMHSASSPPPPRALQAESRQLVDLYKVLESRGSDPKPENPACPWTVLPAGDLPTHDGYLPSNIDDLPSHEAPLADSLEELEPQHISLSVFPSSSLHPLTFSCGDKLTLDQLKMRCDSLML
secreted IL12 encoded by OT-001356 (ORF2: p40 signal sequence; p40 (23-328 of WT); Linker ((G4S)3); p35 (57-253 of WT); BamHI (GS)) (ligand), sequence (chain): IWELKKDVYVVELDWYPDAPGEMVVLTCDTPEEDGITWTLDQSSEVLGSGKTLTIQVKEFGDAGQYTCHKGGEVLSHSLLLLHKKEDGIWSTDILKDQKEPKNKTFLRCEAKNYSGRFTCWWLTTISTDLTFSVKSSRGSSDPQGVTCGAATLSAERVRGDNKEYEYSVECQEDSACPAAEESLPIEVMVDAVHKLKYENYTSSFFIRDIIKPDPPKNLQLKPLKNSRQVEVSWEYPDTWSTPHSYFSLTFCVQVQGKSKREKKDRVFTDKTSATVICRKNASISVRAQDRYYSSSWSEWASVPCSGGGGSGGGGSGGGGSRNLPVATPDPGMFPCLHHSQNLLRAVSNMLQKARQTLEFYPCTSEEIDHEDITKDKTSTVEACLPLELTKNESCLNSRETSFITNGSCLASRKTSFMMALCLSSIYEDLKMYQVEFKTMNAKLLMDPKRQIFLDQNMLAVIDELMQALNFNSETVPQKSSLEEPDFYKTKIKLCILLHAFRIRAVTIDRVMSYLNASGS

Substance: membrane bound IL12 encoded by OT-001895 (p40 (23-328 of WT); (G4S)3; p35 (57-253 of WT); (GS)15; CD8a Hinge and Transmembrane Domain; GS) (ligand)
Bystander effect (pSTAT4 geometric MFI on GFP+ T cells in 1 hour supernatants), ratio 1.1 (geometric MFI): -136 | Bystander effect (pSTAT4 geometric MFI on GFP+ T cells in 1 hour supernatants), ratio 2.1 (geometric MFI): -238 | Bystander effect (pSTAT4 geometric MFI on GFP+ T cells in 1 hour supernatants), ratio 4.3 (geometric MFI): -277 | Bystander effect (pSTAT4 geometric MFI on GFP+ T cells in 1 hour supernatants), ratio 8.5 (geometric MFI): -1180 | Bystander effect (pSTAT4 geometric MFI on GFP+ T cells in 1 hour supernatants), ratio 17.1 (geometric MFI): -3000 | Bystander effect (pSTAT4 geometric MFI on GFP+ T cells in 1 hour supernatants), ratio 34.1 (geometric MFI): -3720 | Transactivation (pSTAT4 geometric MFI on GFP+ cells in co-culture), ratio 1.1 (geometric MFI): 4500 | Transactivation (pSTAT4 geometric MFI on GFP+ cells in co-culture), ratio 2.1 (geometric MFI): 6100 | Transactivation (pSTAT4 geometric MFI on GFP+ cells in co-culture), ratio 4.3 (geometric MFI): 7170 | Transactivation (pSTAT4 geometric MFI on GFP+ cells in co-culture), ratio 8.5 (geometric MFI): 8200 | Transactivation (pSTAT4 geometric MFI on GFP+ cells in co-culture), ratio 17.1 (geometric MFI): 7720 | Transactivation (pSTAT4 geometric MFI on GFP+ cells in co-culture); table head says ratio of 64, paragraph 725 gives 34.1 (geometric MFI): 7700

Substance: membrane bound IL12 encoded by OT-002096 (B7.1 TM domain and IgG1 CH2-CH3 domain as a hinge domain) (ligand)
Bystander effect (pSTAT4 geometric MFI on GFP+ T cells in 1 hour supernatants), ratio 2.4 (geometric MFI): 405 | Bystander effect (pSTAT4 geometric MFI on GFP+ T cells in 1 hour supernatants), ratio 4.8 (geometric MFI): 1050 | Bystander effect (pSTAT4 geometric MFI on GFP+ T cells in 1 hour supernatants), ratio 9.7 (geometric MFI): 1650 | Bystander effect (pSTAT4 geometric MFI on GFP+ T cells in 1 hour supernatants), ratio 19.4 (geometric MFI): 1470 | Bystander effect (pSTAT4 geometric MFI on GFP+ T cells in 1 hour supernatants), ratio 38.7 (geometric MFI): 1470 | Bystander effect (pSTAT4 geometric MFI on GFP+ T cells in 1 hour supernatants), ratio 77.5 (geometric MFI): 955 | Transactivation (pSTAT4 geometric MFI on GFP+ cells in co-culture), ratio 2.4 (geometric MFI): 2620 | Transactivation (pSTAT4 geometric MFI on GFP+ cells in co-culture), ratio 4.8 (geometric MFI): 3250 | Transactivation (pSTAT4 geometric MFI on GFP+ cells in co-culture), ratio 9.7 (geometric MFI): 4030 | Transactivation (pSTAT4 geometric MFI on GFP+ cells in co-culture), ratio 19.4 (geometric MFI): 4180 | Transactivation (pSTAT4 geometric MFI on GFP+ cells in co-culture), ratio 38.7 (geometric MFI): 4860 | Transactivation (pSTAT4 geometric MFI on GFP+ cells in co-culture); table head says ratio of 64, paragraph 725 gives 77.5 (geometric MFI): 5220

Substance: membrane bound IL12 encoded by OT-002112 (B7.1 TM domain and FcgammaR2b (Fcgr2b) as a hinge domain) (ligand)
Bystander effect (pSTAT4 geometric MFI on GFP+ T cells in 1 hour supernatants), ratio 1.3 (geometric MFI): -1 | Bystander effect (pSTAT4 geometric MFI on GFP+ T cells in 1 hour supernatants), ratio 2.5 (geometric MFI): -818 | Bystander effect (pSTAT4 geometric MFI on GFP+ T cells in 1 hour supernatants), ratio 5 (geometric MFI): -232 | Bystander effect (pSTAT4 geometric MFI on GFP+ T cells in 1 hour supernatants), ratio 10.1 (geometric MFI): -988 | Bystander effect (pSTAT4 geometric MFI on GFP+ T cells in 1 hour supernatants), ratio 20.2 (geometric MFI): -1400 | Bystander effect (pSTAT4 geometric MFI on GFP+ T cells in 1 hour supernatants), ratio 40.4 (geometric MFI): -2660 | Transactivation (pSTAT4 geometric MFI on GFP+ cells in co-culture), ratio 1.3 (geometric MFI): 5110 | Transactivation (pSTAT4 geometric MFI on GFP+ cells in co-culture), ratio 2.5 (geometric MFI): 6070 | Transactivation (pSTAT4 geometric MFI on GFP+ cells in co-culture), ratio 5 (geometric MFI): 7760 | Transactivation (pSTAT4 geometric MFI on GFP+ cells in co-culture), ratio 10.1 (geometric MFI): 8120 | Transactivation (pSTAT4 geometric MFI on GFP+ cells in co-culture), ratio 20.2 (geometric MFI): 8420 | Transactivation (pSTAT4 geometric MFI on GFP+ cells in co-culture); table head says ratio of 64, paragraph 725 gives 40.4 (geometric MFI): 8020

Other lines, results leading:

Bystander effect (pSTAT4 geometric MFI on GFP+ T cells in 1 hour supernatants), ratio 2.4 (geometric MFI): -642 | Bystander effect (pSTAT4 geometric MFI on GFP+ T cells in 1 hour supernatants), ratio 4.7 (geometric MFI): -566 | Bystander effect (pSTAT4 geometric MFI on GFP+ T cells in 1 hour supernatants), ratio 9.5 (geometric MFI): -1130 | Bystander effect (pSTAT4 geometric MFI on GFP+ T cells in 1 hour supernatants), ratio 18.9 (geometric MFI): -1380 | Bystander effect (pSTAT4 geometric MFI on GFP+ T cells in 1 hour supernatants), ratio 37.9 (geometric MFI): -2880 | Bystander effect (pSTAT4 geometric MFI on GFP+ T cells in 1 hour supernatants), ratio 75.8 (geometric MFI): -3530 | Transactivation (pSTAT4 geometric MFI on GFP+ cells in co-culture), ratio 2.4 (geometric MFI): 5190 | Transactivation (pSTAT4 geometric MFI on GFP+ cells in co-culture), ratio 4.7 (geometric MFI): 6680 | Transactivation (pSTAT4 geometric MFI on GFP+ cells in co-culture), ratio 9.5 (geometric MFI): 7760 | Transactivation (pSTAT4 geometric MFI on GFP+ cells in co-culture), ratio 18.9 (geometric MFI): 8320 | Transactivation (pSTAT4 geometric MFI on GFP+ cells in co-culture), ratio 37.9 (geometric MFI): 8030 | Transactivation (pSTAT4 geometric MFI on GFP+ cells in co-culture); table head says ratio of 64, paragraph 725 gives 75.8 (geometric MFI): 8090
Substance: membrane bound IL12 encoded by OT-002011 (B7.1 transmembrane domain and short CD8 hinge domain) (ligand)

Bystander effect (pSTAT4 geometric MFI on GFP+ T cells in 1 hour supernatants), ratio 1.5 (geometric MFI): -59 | Bystander effect (pSTAT4 geometric MFI on GFP+ T cells in 1 hour supernatants), ratio 2.9 (geometric MFI): 852 | Bystander effect (pSTAT4 geometric MFI on GFP+ T cells in 1 hour supernatants), ratio 5.9 (geometric MFI): 437 | Bystander effect (pSTAT4 geometric MFI on GFP+ T cells in 1 hour supernatants), ratio 11.8 (geometric MFI): -58 | Bystander effect (pSTAT4 geometric MFI on GFP+ T cells in 1 hour supernatants), ratio 23.6 (geometric MFI): -1010 | Bystander effect (pSTAT4 geometric MFI on GFP+ T cells in 1 hour supernatants), ratio 47.1 (geometric MFI): -4240 | Transactivation (pSTAT4 geometric MFI on GFP+ cells in co-culture), ratio 1.5 (geometric MFI): 4660 | Transactivation (pSTAT4 geometric MFI on GFP+ cells in co-culture), ratio 2.9 (geometric MFI): 6540 | Transactivation (pSTAT4 geometric MFI on GFP+ cells in co-culture), ratio 5.9 (geometric MFI): 7210 | Transactivation (pSTAT4 geometric MFI on GFP+ cells in co-culture), ratio 11.8 (geometric MFI): 7660 | Transactivation (pSTAT4 geometric MFI on GFP+ cells in co-culture), ratio 23.6 (geometric MFI): 7630 | Transactivation (pSTAT4 geometric MFI on GFP+ cells in co-culture); table head says ratio of 64, paragraph 725 gives 47.1 (geometric MFI): 5460
Substance: membrane bound IL12 encoded by OT-002111 (B7.1 TM domain and B7.1 C2 domain as a hinge domain) (ligand)

Bystander effect (pSTAT4 geometric MFI on GFP+ T cells in 1 hour supernatants), CAR-IL12+:GFP+ ratio 73.9 (geometric MFI): -2620 | Bystander effect (pSTAT4 geometric MFI on GFP+ T cells in 1 hour supernatants), ratio 2.3 (geometric MFI): -1090 | Bystander effect (pSTAT4 geometric MFI on GFP+ T cells in 1 hour supernatants), ratio 4.6 (geometric MFI): -518 | Bystander effect (pSTAT4 geometric MFI on GFP+ T cells in 1 hour supernatants), ratio 9.2 (geometric MFI): -86 | Bystander effect (pSTAT4 geometric MFI on GFP+ T cells in 1 hour supernatants), ratio 18.5 (geometric MFI): -226 | Bystander effect (pSTAT4 geometric MFI on GFP+ T cells in 1 hour supernatants), ratio 37 (geometric MFI): -1400 | Transactivation (pSTAT4 geometric MFI on GFP+ cells in co-culture), ratio 2.3 (geometric MFI): 2840 | Transactivation (pSTAT4 geometric MFI on GFP+ cells in co-culture), ratio 4.6 (geometric MFI): 4370 | Transactivation (pSTAT4 geometric MFI on GFP+ cells in co-culture), ratio 9.2 (geometric MFI): 5570 | Transactivation (pSTAT4 geometric MFI on GFP+ cells in co-culture), ratio 18.5 (geometric MFI): 6420 | Transactivation (pSTAT4 geometric MFI on GFP+ cells in co-culture), ratio 37 (geometric MFI): 6940 | Transactivation (pSTAT4 geometric MFI on GFP+ cells in co-culture); table head says CAR-IL12+:GFP+ ratio of 64, paragraph 725 gives 73.9 (geometric MFI): 6450
Substance: secreted IL12 encoded by OT-001356 (ORF2: p40 signal sequence; p40 (23-328 of WT); Linker ((G4S)3); p35 (57-253 of WT); BamHI (GS)) (ligand)
